Reference: patent US20250011471A1 (published 2025)
Blank lines part the entries; values can stand above or below the binder they belong to.

Experiments:
human FGFR1c on cells [1] = molecular target: T1, human FGFR1c on cells (human, UniProt P11362 22-822); assay: radiolabel ligand assay on cells expressing only FGFR1c; could not be determined reliably
T1 construct: HEK293 cells expressing FGFR1c without KLB; also called hFGFR1c

[2] = molecular target: T2, human KLB/human FGFR1c complex on HEK293 cells (human, UniProt Q86Z14 53-1044; P11362 22-822); assay: cell-based or functional assay
[3] = molecular target: T2, human KLB/human FGFR1c complex on …; assay: radiolabeled ligand cell binding assay on stable HEK293 cells, iodinated against unlabeled protein
human FGFR1c on cells [4] = molecular target: T1, human FGFR1c on cells; assay: as above
mouse KLB = molecular target: T3, mouse KLB (mouse, UniProt Q99N32 53-990); assay: as above
T3 construct: KLB cDNA in pRK vector, transiently expressed on HEK293T cells for FACS
T3 sequence: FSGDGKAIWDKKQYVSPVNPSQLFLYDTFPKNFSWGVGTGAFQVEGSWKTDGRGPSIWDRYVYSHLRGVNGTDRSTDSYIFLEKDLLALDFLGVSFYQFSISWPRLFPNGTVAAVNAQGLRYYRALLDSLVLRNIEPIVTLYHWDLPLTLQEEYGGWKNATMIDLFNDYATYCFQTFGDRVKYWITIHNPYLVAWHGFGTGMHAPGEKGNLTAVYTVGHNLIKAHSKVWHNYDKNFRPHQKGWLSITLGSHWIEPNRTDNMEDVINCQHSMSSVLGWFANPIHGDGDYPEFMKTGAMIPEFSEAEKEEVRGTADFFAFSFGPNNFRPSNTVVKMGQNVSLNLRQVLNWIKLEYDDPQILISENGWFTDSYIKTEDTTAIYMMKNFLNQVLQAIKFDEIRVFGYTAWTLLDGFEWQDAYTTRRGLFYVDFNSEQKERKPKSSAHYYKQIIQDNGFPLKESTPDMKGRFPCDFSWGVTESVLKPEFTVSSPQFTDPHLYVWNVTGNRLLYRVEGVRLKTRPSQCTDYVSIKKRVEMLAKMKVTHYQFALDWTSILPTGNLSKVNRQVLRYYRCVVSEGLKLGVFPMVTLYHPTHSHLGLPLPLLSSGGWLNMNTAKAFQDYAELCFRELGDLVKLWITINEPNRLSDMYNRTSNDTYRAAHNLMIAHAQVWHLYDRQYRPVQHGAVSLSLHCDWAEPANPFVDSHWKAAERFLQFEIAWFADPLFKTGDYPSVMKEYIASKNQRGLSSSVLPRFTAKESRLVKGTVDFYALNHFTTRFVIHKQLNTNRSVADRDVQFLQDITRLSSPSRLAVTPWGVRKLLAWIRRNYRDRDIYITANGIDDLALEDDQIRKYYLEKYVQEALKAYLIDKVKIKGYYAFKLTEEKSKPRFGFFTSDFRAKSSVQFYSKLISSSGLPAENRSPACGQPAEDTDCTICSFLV

human KLB on cells = molecular target: T4, human KLB on cells (human, UniProt Q86Z14 53-1044); assay: as above
T4 construct: also called hKLB; beta-Klotho

T1 sequence (P11362 other isoform, or with tags, fused parts or gaps limits assumed): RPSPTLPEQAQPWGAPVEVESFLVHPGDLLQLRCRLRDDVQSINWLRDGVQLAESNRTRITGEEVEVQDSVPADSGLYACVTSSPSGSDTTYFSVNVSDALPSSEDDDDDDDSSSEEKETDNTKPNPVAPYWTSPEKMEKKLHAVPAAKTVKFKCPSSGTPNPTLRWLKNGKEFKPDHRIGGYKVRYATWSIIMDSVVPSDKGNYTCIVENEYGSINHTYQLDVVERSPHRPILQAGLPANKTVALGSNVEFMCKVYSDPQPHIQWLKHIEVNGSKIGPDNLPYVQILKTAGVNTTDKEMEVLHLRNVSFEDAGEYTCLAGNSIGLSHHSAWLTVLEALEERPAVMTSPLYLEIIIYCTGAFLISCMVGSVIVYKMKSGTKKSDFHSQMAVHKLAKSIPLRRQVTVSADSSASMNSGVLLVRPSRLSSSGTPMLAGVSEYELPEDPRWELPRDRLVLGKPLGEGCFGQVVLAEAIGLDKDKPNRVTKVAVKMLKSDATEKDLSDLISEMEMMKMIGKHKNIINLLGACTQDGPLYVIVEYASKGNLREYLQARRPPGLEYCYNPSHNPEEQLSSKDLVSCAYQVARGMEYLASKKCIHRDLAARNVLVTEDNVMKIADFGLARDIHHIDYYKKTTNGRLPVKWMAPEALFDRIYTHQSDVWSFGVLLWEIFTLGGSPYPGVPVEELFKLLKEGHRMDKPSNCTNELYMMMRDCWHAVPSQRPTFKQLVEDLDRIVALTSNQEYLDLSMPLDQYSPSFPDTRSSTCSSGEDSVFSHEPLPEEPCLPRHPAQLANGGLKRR

- Kd (human FGFR1c on cells [1]): > 300 nM
- EC50 in GAL-ELK1 assay in HEK293 cells [2]: 3.2 nM
- Kd [3]: 2.3 nM
- Kd (human FGFR1c on cells [4]): 300 nM
- Kd (mouse KLB): 15.5 nM
- Kd (human KLB on cells): 6.6 nM
B1: BsAb10 (bispecific antibody)
chain 1: EVQLVESGGGLVQPGGSLRLSCAASGFTFTSNWISWVRQAPGKGLEWVAEIDPYDGATDYADSVKGRFTISADTSKNTAYLQMNSLRAEDTAVYYCATGTDVMDYWGQGTLVTVSS
chain 2: DIQMTQSPSSLSASVGDRVTITCRASQDVSTAVAWYQQKPGKAPKLLIYSASFLYSGVPSRFSGSGSGTDFTLTISSLQPEDFATYYCQQSYTTPPTFGQGTKVEIK
chain 3: QVQLKQSGPGLVQPSQSLSVACTVSDFSLTTYGVHWVRQSPGKGLEWLGVIWSGGSTDYNAAFISRLTISKDNSKSQVFFKMNSLQTTDTAIYYCARDYGSTYVDAIDYWGQGTSVTVSS
chain 4: DIVLTQSPTSLAVSLGQRATISCRASESVESYGNRYMTWYQQKPGQPPKLLIYRAANLQSGIPARFSGSGSRTDFTLTIDPVEADDVATYYCQQSNEDPWTFGGGTKVEIK

- Kd [3]: 2.2 nM
- Kd (human FGFR1c on cells [4]): 300 nM
- Kd (human KLB on cells): 9.8 nM
B2: BsAb9 (bispecific antibody)
chain 1: B1 chain 1
chain 2: B1 chain 2
chain 3: EVKFLESGGGLVQPGGSLRLSCAVSGIDFSRYWMSWVRQAPGKGLEWIGEISPDSSTINYTPSLKDKFVISRDNAKNTLYLQMSKVRSADTALYYCARPSPALDYWGQGTLVTVSA
chain 4: DIVMTQSPATLSVTPGDRVSLSCRASQSISDYVYWYQQKSHESPRLLIIYASQSISGIPSRFSGSGSGSDFTLSINSVEPEDVGVYYCQNGHNFPYTFGGGTKLEIK
